Measurements reported in the RNAGym collection of RNA variant scans (doi:10.7554/elife.90254).

B1: OR4K15 (parent)
chain: GUUAACGGUCAUAGGCCAUGGAAACUAGGAGCACCAUUUCGCUGCCAGUGAAGAAAUGAACAAAGAAAAUCUGGGCCAGGCAGGCAUCAAAAGAAAUAGUCUUGCGCUCAACCAGAAAGUCUGUAAUCAUUUUAAGGGUA

Variants of: B1
Assay: self-cleavage, relative activity (ratio to wild type); higher = more cleavage; in vitro, sequencing; the parent is a self-cleaving ribozyme
G74A U108C showed a self-cleavage of 0.01. For A69U U108C, the self-cleavage was 0.02. A69G U139A gave a self-cleavage of 1.69. Work on G75C A110G yielded a self-cleavage of 0.02. With U70C A110G the self-cleavage was 0.06. Work on G73U C105U yielded a self-cleavage of 0.01. For G75A U87C, the self-cleavage was 0.14. G75A U108C showed a self-cleavage of 0.03. In the case of U72C C107U, the self-cleavage is reported as 0.01. G74C A111G showed a self-cleavage of 0.02. With U72A A114G the self-cleavage was 0.11. With A69U A90G the self-cleavage was 1.31. In the case of G73A U108C, the self-cleavage is reported as 0.01. In the case of U70A U103A, the self-cleavage is reported as 0.67. In the case of U70G A95G, the self-cleavage is reported as 1.21. With U72C A114G the self-cleavage was 2.31. Work on U72G C101A yielded a self-cleavage of 0.1. For U72A U100C, the self-cleavage was 0.4. U72A U100G showed a self-cleavage of 0.19. With G75C A129G the self-cleavage was 0.07. U72A A135U showed a self-cleavage of 0.14. With U72A A135G the self-cleavage was 0.21. For U72G U120C, the self-cleavage was 0.13. In the case of A69G U70A, the self-cleavage is reported as 1.26. Work on G74A A110G yielded a self-cleavage of 0.02. C71U A135C gave a self-cleavage of 0.42. For A69G G123A, the self-cleavage was 1.43. With U70C A129U the self-cleavage was 0.41. For C71A U132C, the self-cleavage was 0.58. Variant U70A U132C has a self-cleavage of 0.6. A69U A126C showed a self-cleavage of 1.66. With A69G U122G the self-cleavage was 1.83. In the case of U72A U131C, the self-cleavage is reported as 0.14. Variant G75C A126C has a self-cleavage of 0.09. For G75C A126G, the self-cleavage was 0.12. U70G A94G showed a self-cleavage of 1.61. A69G A92G showed a self-cleavage of 0.72. In the case of A69G A92U, the self-cleavage is reported as 1.3. For U72A C85U, the self-cleavage was 0.36. A69U A96G gave a self-cleavage of 2.35. Work on A69U A94G yielded a self-cleavage of 2.42. With A69G U108C the self-cleavage was 0.02. U70C C109A showed a self-cleavage of 0.16. In the case of G73A A82G, the self-cleavage is reported as 0.22. Work on U72C A89G yielded a self-cleavage of 0.24. Work on G74C A140G yielded a self-cleavage of 0.23. G75A A78U gave a self-cleavage of 0.09. In the case of A69G A126G, the self-cleavage is reported as 0.55. A69G A126U showed a self-cleavage of 1.33. Variant A69U U72C has a self-cleavage of 0.36. For G74A U127C, the self-cleavage was 0.02. G74U A111G gave a self-cleavage of 0.04. U72C A91G gave a self-cleavage of 0.05. In the case of G74A A125G, the self-cleavage is reported as 0.05. With C71U U124C the self-cleavage was 0.06. Work on A68U C113A yielded a self-cleavage of 0.01. For U72C U102A, the self-cleavage was 0.07. Variant U70C U72C has a self-cleavage of 0.31. U70C U72A gave a self-cleavage of 0.21. For G73A G79A, the self-cleavage was 0.17. G74A U122A gave a self-cleavage of 0.18. C71A A78U showed a self-cleavage of 0.26. A69G C107U gave a self-cleavage of 0.03. U72A A95G gave a self-cleavage of 0.36. With G74A U87A the self-cleavage was 0.22. With U72A U87A the self-cleavage was 0.37. In the case of U72A U87C, the self-cleavage is reported as 0.19. In the case of U72C U108A, the self-cleavage is reported as 0.07. With U72C U108C the self-cleavage was 0.01. Work on C71A A98G yielded a self-cleavage of 0.14. A69G U124A gave a self-cleavage of 0.53. For U70A U72C, the self-cleavage was 0.22. Variant U70A U72A has a self-cleavage of 0.24. Variant C71U U72A has a self-cleavage of 0.19. In the case of U70A U139A, the self-cleavage is reported as 0.23. With G74A U103C the self-cleavage was 0.08. U72C C128A showed a self-cleavage of 0.13. Variant G75A A125G has a self-cleavage of 0.03. U72C G83A gave a self-cleavage of 0.08. With A69C A114G the self-cleavage was 0.21. With A69G A86G the self-cleavage was 1.24. With G75A U103C the self-cleavage was 0.06. With U72C U131C the self-cleavage was 0.16. With U72C U131A the self-cleavage was 0.1. With A69U A134G the self-cleavage was 1.82. G75A C77U showed a self-cleavage of 0.11. A68U C88U gave a self-cleavage of 2.47. Variant U72C G136A has a self-cleavage of 0.7. Work on A68U G106A yielded a self-cleavage of 0. With U72C A134G the self-cleavage was 0.16. Work on A68U G75C yielded a self-cleavage of 0.22. In the case of G74A A140U, the self-cleavage is reported as 0.22. Work on U70A U131C yielded a self-cleavage of 0.7. U72A U127A showed a self-cleavage of 0.64. A69G A95U gave a self-cleavage of 1.56. Work on A69C U132C yielded a self-cleavage of 2.58. Work on G75C A98G yielded a self-cleavage of 0.07. For A68U A114U, the self-cleavage was 0.06. Work on G75A G119A yielded a self-cleavage of 0.17. For U70C G83A, the self-cleavage was 1.57. Work on A69U A78C yielded a self-cleavage of 0.31. A69G U72G showed a self-cleavage of 0.38. In the case of G74A A82G, the self-cleavage is reported as 0.26. With U72C A140G the self-cleavage was 0.34. In the case of C71G U87A, the self-cleavage is reported as 0.21. With U70C G104A the self-cleavage was 0.03. In the case of A69U U103C, the self-cleavage is reported as 0.51. For U72C G106A, the self-cleavage was 0.02. U70C U100A showed a self-cleavage of 0.18. Work on U70C U100C yielded a self-cleavage of 2. In the case of G74U U87A, the self-cleavage is reported as 0.15. With A69U A117G the self-cleavage was 1.48. In the case of U72A A117G, the self-cleavage is reported as 0.16. Work on G74U G83A yielded a self-cleavage of 0.16. A69G A118G gave a self-cleavage of 0.98. Variant G73U A110G has a self-cleavage of 0.03. With A69G G75C the self-cleavage was 0.16. In the case of U70A U127C, the self-cleavage is reported as 0.34. For G73A A92G, the self-cleavage was 0.2. Work on U72C A111G yielded a self-cleavage of 0.02. With U72C A86C the self-cleavage was 0.28. In the case of U70A A78G, the self-cleavage is reported as 0.33. Variant U70A A78U has a self-cleavage of 0.43. Work on A68U U108C yielded a self-cleavage of 0.02. With U72C C105A the self-cleavage was 0.03. In the case of U70C G75A, the self-cleavage is reported as 0.21. Variant A69U A129U has a self-cleavage of 1.23. U70C A91U showed a self-cleavage of 1.07. Work on U70C A114C yielded a self-cleavage of 0. U70C A114U showed a self-cleavage of 0.02. Work on U72C A95G yielded a self-cleavage of 0.35. Work on U72C A95U yielded a self-cleavage of 0.35. Variant G74U A114U has a self-cleavage of 0.04. Work on A69G A89C yielded a self-cleavage of 1.65. A69G A89G showed a self-cleavage of 0.86. For U72G U102A, the self-cleavage was 0.11. Variant G73U A86G has a self-cleavage of 0.17. For A69U A92G, the self-cleavage was 2.17. Variant U72C U124C has a self-cleavage of 0.17. For U70C A118G, the self-cleavage was 0.35. U72A C128U showed a self-cleavage of 0.15. A69G A94G showed a self-cleavage of 1.36. A69G A94U gave a self-cleavage of 1.45. Variant G74A A117G has a self-cleavage of 0.2. Variant G74A A117U has a self-cleavage of 0.19. With U70A A110U the self-cleavage was 0.18. In the case of U70A A110G, the self-cleavage is reported as 0.1. Work on U70C C128U yielded a self-cleavage of 0.31. For U72A A86U, the self-cleavage was 0.32. U72A A86G showed a self-cleavage of 0.17. For U72G, the self-cleavage was 0.12. Work on U72C yielded a self-cleavage of 0.12. With U72A the self-cleavage was 0.18. Variant U72A C101A has a self-cleavage of 0.04. Variant U72A A90G has a self-cleavage of 0.18. G74U C113A showed a self-cleavage of 0.04. U72A A92U gave a self-cleavage of 0.13. With G74C A110U the self-cleavage was 0.14. Work on A69G G99U yielded a self-cleavage of 0.23. G73U A92G showed a self-cleavage of 0.16. Variant U72C G138A has a self-cleavage of 0.49. Variant A69U U87G has a self-cleavage of 0.74. Work on G73U A126G yielded a self-cleavage of 0.07. With U72C A78G the self-cleavage was 0.25. Variant U72C A78C has a self-cleavage of 0.27. Work on G73A G136U yielded a self-cleavage of 0.22. Work on A69G U132A yielded a self-cleavage of 0.69.
